Laboratory results taken from publication PMC8242953, “Immune Tolerance-Adjusted Personalized Immunogenicity Prediction for Pompe Disease” (Frontiers in Immunology, 2021).

Tests used:
[1] = CRIM-positive IOPD children on ERT; ref [5]; cited from earlier work
Source text: The development of ADA to rhGAA is influenced by the presence or absence of endogenous GAA, defined as cross-reactive immunologic material (CRIM). Individuals who are CRIM-negative have a complete absence of GAA and are at the highest risk of ADA, whereas those who are CRIM-positive may be more immune tolerant to ERT, due to prior exposure to endogenous GAA ([4]). However, one-third of CRIM-positive IOPD children still develop high and sustained or intermediate ADA titers, putting them at risk for clinical decline similar to CRIM-negative individuals ([5]). All CRIM-negative patients develop H ...

[2] = Anti-rhGAA IgG antibody (ADA) titers in IOPD subjects on ERT; format: in vivo, human
Description: Children with a confirmed diagnosis of IOPD were enrolled in Duke University Medical Centers. IOPD was defined as the presence of hypertrophic cardiomyopathy in the first year of life. […] Clinical data including CRIM status, GAA variants, GAA enzyme activity, age at ERT initiation, and longitudinal anti-rhGAA IgG antibody titers were extracted from medical records ( Supplementary Table S1 ).
ADA titers were determined by Sanofi Genzyme using enzyme-linked immunosorbent assays (ELISA) and confirmed using radioimmunoprecipitation as described previously ([6]). Subjects whose ADA titers repeatedly exceed 51,200 after more than 6-months on rhGAA were classified as high and sustained antibody titers (HSAT) ([5], [11]). Subjects whose ADA titers fell between 12,800 and 51,200 within the first year of ERT were classified as sustained intermediate titers (SIT). Based on ADA titers, subjects were stratified into two groups; 1) High ADA, subjects who developed ADA titers in HSAT or SIT range (≥12,800) and 2) Low ADA, subjects who maintained ADA titers of ≤6,400.

Substance: alglucosidase alfa [rhGAA]
- share of CRIM-positive IOPD children who develop high and sustained or intermediate ADA titers [1]: one-third
- subjects who developed high ADA titers ([2]; 19 of 48 CRIM-positive IOPD subjects on rhGAA ERT without ITI, high ADA = HSAT or SIT, titers ≥12,800): 40%
- subjects who developed low ADA titers ([2]; 29 of 48 CRIM-positive IOPD subjects on rhGAA ERT without ITI, low ADA = titers ≤6,400): 60%
